Results: the RNAGym collection of RNA variant scans (doi:10.1073/pnas.2313332121)

B1: TPR t1 (parent)
chain: GACCAAUCUGCCCUCAGAGCUCGAGAACAUCUUCGGAUGCAGAGGAGGCAGGCUUCGGUGGCGCGAUAGCGCCAACGUCCUCAACCUCCAAUGCAUCCCACCACAUGAUGAUGCCUGAAGAGCCUUGGUUUUUUG

Variants of: B1
Experiment: polymerase ribozyme fitness, log enrichment relative to wild type (log ratio); higher = more active; in vitro selection for triplet polymerase activity
Method in brief: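 Mutant libraries were PCR-built and transcribed for each subunit of a heterodimeric triplet polymerase ribozyme and selected for one round in triplicate at −7 °C, frozen, before gel excision of extended constructs and streptavidin-bead capture. Input and output libraries were Illumina-sequenced, keeping genotypes with ≥10 input reads and ≥1 read per output. Fitness is a logarithmic ratio of genotype to wild-type enrichment, in base 2, using inverse-variance-weighted replicate averages.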

Variant | polymerase ribozyme fitness (log ratio)
U38A G45A U129C | -2.96
U38G U125G | -1.35
G39C A50U C53U U78G | -2.26
G39U C56G | -1.37
G39U C56A | -1.06
G39U C56U | 0.0586
G39U C79U C89A A111U | -5.59
A37U G51A A100C U112A | -5.37
A37U U132C | -1.09
U38G C79U C97U | -5.59
U38A C124A | 1.2
A37U U38A G63A | -3.7
G39A A119U | -0.287
G39A G45A | -1.29
G39U C114U | -2.86
G39U C114G | -3.65
G39A G113C A119U | -3.54
G39C C73A A74U | -0.844
G39C G48A G71U | -1.51
G39A C62U A83U U87G | -0.927
A37U G117C G122U | -5.5

Variant | polymerase ribozyme fitness (log ratio)
G39U A43C C49A | -3.34
G39A G45C G51C G69U U125G | -2.57
G39A A43G G127U | -2.87
G39A A74G | -0.641
U38A U130C | -0.259
G39C C40U G69A | -4.36
G39A A50U A118U | -0.352
U38A A46U | -2.42
A37U G60U | -1.39
G39C U59A C104A | -2.48
G39A C89G C101U | -1.85
G39A C62U A75U A83C U87C | -1.16
G39A A43U C88G C123A | -4.11
G39A A41G A83G C94A | -4.25
G39A A43U C70U C82U G113C U132C | -3.27
A37U G69U A118C | -2.82
G39A G61A U78C | -0.505
U38A C62G | -3.68
G39A A46U U87A U106A | 0.825
U38A G45U G52A U131G | -3.68
U38G G51C | -6.44

Variant | polymerase ribozyme fitness (log ratio)
G39U C40A C62U | -2.99
U38G C64U A66C A90U A91C U132A | -3.61
G39U A41C C94U C124A | 0.616
U38G C56U C79G U81G U96C C104A G110C | -5.98
G39C G45C C64U C82A C85G | -5.8
U38G G69U C98A | -4.75
U38G U54C C56U G61U A111U | -5.38
G39U A41G G44U C56G A105C A111U | -5.8
U38A G57A G63A | -4.08
G39A G71C G93U C104U C123A | -3.19
G39A A118U | 0.354
U38G C53G G69U C98A | -6.04
U38G A95C | 0.185
A37U G52U C64U C123A C124A | 0.273
G39A G42U C80U C124U | -1.59
G39U | -0.799
G39A | -0.485
G39C | -0.776
G39C A118C | -2.89
G39U C88U G107U G113A G122A | -6.96
G39A A43U G63U C86G | -4.39

Variant | polymerase ribozyme fitness (log ratio)
U38G A46U G110U | -4.8
G39A G44U C86A A108U C115U G128U U130G | -6.8
G39A C70G G120C G122U | -3.09
U38G C64U | -1.09
U38G U133A | -0.846
U38A C80U | -1.43
U38A G52U C62U U78G A90G | -2.07
G39A C86G | -1.11
G39U C53U | -0.876
G39U C53G | 0.711
G39A G60U | 0.0117
G39A G60A | -0.734
G39A G57U G71U U78G | -1.84
G39U C40G C64U U106A U109A G120C | -5.69
G39A C62U G122A | -1.13
G39A G42U C49A G52A | -4.68
G39A C70U A118G G122A | -0.719
G39A C73A | -0.374
G39C C98U G117A | -3.94
G39C G120A | 0.0157
